Assay: yeast display, Sf9 membrane polyspecificity reagent, FACS + sequencing; frameworks hold sequencing errors
In short: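 In a synthetic yeast display library (Saccharomyces cerevisiae BJ5465), nanobody expression was induced with galactose for 36–48 hours. FACS gates were set low and high (top ~1%) using anti-HA fluorescence for expression and streptavidin fluorescence for binding of the Sf9 membrane reagent. Each polyreactivity label is drawn from the gate of origin.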

| Sequence | polyreactivity (PSR sort gate) |
| --- | --- |
| QVQLVESGGGLVQAGGSLRLSCAASGSTFAYNTMGWYRKAPGKERELVAAITQLGGSTYADSVKGRFTISRDNAKNTVYLQINSLKPEENAVYYCAADGYTYKFDYWGQGTQVTVSS | low polyreactivity |
| QVQLVESGGGLVQAGGSLRLSCAASGSTFAYYAMGWYRQAPGKERELVARIRSSGVSTYYADSVKGRFTISRDNAKNTVYLQMNSLKPEDTAVYYCNKAYSGVRYDSWGQGTQVTVSS | low polyreactivity |
| QVQLVESGGGLVQAGGSLRLSCAASGSTFAYYTMGWYRQAPGKERELVAAISAGGGSTYYADSVKGRFTISRDNAKNTVYLQMNSLKPEDTAVYYCAVRVLIHTNTRRLDYWGQGTQVTVSS | high polyreactivity |
| QVQLVESGGGLVQAGGSLRLSCAASGSTFCYYGMGWYRQAPGTERELVAAISWSGGTFYADSVKGRFTISRDNAKNTVYLQMNSLKPEDTAVYYCATDYGGPITGYEYWGQGTQVTVSS | low polyreactivity |
| QVQLVESGGGLVQAGGSLRLSCAASGSTFDAYAMGWYRPAPGTERELVAGISTSGGSTYYADSVKGRFTISRDNAKYTVVLQMNSMIPEVYAVYYCGAGVFRYVDRYGDMEYWGQGTQVTVSS | low polyreactivity |
| QVQLVESGGGLVQAGGSLRLSCAASGSTFDAYAMGWYRQAPGKERELVAAITWSGGSTYYADSVKGRFTISRDNAKNTVYLQMNSLKPEDTAVYYCAAYYLIFYFEFDYWGQGTQVTVSS | low polyreactivity |
| QVQLVESGGGLVQAGGSLRLSCAASGSTFDAYAMGWYRQAPGKERQLVAAITHGGSTNYADSVKGRFTISRDNAKNTVYLQMNSLKPEDTAVYYCNAQHRTVWGIFGRFNYWGQATQVTVSS | low polyreactivity |
| QVQLVESGGGLVQAGGSLRLSCAASGSTFDDNAMGWYRQAPGKERELVAAINGDGITTYADSVKGRFTISRDNAKNTVYLQMNSMKPEDTAVYYCNTVGIGAWGYSYPDEDNYWGQGTQVTVSS | low polyreactivity |
| QVQLVESGGGLVQAGGSLRLSCAASGSTFDDNGMGWYRKAPGKERELVAGINSAGSTYYADSVKGRFTISRDNAKNTVYLQMNSLKPEDTAVYYCARRFLLKDRTKRAYGSWGQGTQVTVSS | low polyreactivity |
| QVQLVESGGGLVQAGGSLRLSCAASGSTFDDYAMGWYRQAPGKERELVAAINSDCGGTYYADSVKGRFTISRDNAKNTVYLQMNSLKPEDTAVYYCNVEYEDYYAQRYGYDYWGQGTQVTVSS | low polyreactivity |
| QVQLVESGGGLVQAGGSLRLSCAASGSTFDDYVMGWYRQAPGKERELVAGINSRGTSTDYADSVKGRFTISRDNAKNTVYLQLNSLKPEDTAVYYCAADDSHGYDYWGQGTQVTVSS | low polyreactivity |
| QVQLVESGGGLVQAGGSLRLSCAASGSTFDDYVMGWYRQAPGKERELVAGINSRGTSTDYAGSVKGRFTISRDNAKNTVYLQMNSLKPEDTAVYYCAADDSHGYDYWGQGTQVTVSS | low polyreactivity |
| QVQLVESGGGLVQAGGSLRLSCAASGSTFDENAMAWYRQAPGKEWELVAVISDSGGSTYYADSVKGRFTISRDNAKNTVYLQMNSLKPEDTAVYYCAADQSSLDYGNDYWGQGTQVTVSS | low polyreactivity |
| QVQLVESGGGLVQAGGSLRLSCAASGSTFDFNAMGWYRQAPGKERELVAAITSGGGSTYYADSLKGRFTISRDNAKNTVYLQMNSLKPEDTAVYYCAADDIVLRYDYWGQGTQVTVSS | low polyreactivity |
| QVQLVESGGGLVQAGGSLRLSCAASGSTFDFNAMGWYRQAPGKERELVAAITYSGGSTYYADSVKGRFTISRDNAKNTVYLQMNSLKPVDTAVYYCAAEDVYPGSIDMDYWGQGTQVTVSS | low polyreactivity |
| QVQLVESGGGLVQAGGSLRLSCAASGSTFDFYAMGWYRQAPGKERELVAAITYSGGSTYYADSVKGRFTISRDNAKNTVYLQMNSLKPEDTAVYYCAAARVWQYSDFFLYYYWGQGTQVTVSS | low polyreactivity |
| QVQLVESGGGLVQAGGSLRLSCAASGSTFDGNAMGWYRQAPGKERELVAAITRAGRTSYADSVKGRFTISRDNAKNTVYLQMNSLKPEDTAVYYCAKGGYDYWGQGTQVTVSS | low polyreactivity |
| QVQLVESGGGLVQAGGSLRLSCAASGSTFDGNAMGWYRQAPGKERELVAAITYTTSSTYYADSVKGRFTISRDNAKNTVYLQMNSLKPEDTAVYYCAAGVNYRSPGVSKGRDYWGQGTQVTVSS | low polyreactivity |
| QVQLVESGGGLVQAGGSLRLSCAASGSTFDGNAMGWYRQAPGKERELVATITRRGGSTNYADSVKGRFTISRDNAKNTVYLQMNSLKPEDTAVYYCATADAHSSAAGEDYWGQGTQVTVSS | low polyreactivity |
| QVQLVESGGGLVQAGGSLRLSCAASGSTFDGNAMGWYRQAPGKESELVAAISWSGGSTYYADSVKGRFTISRDNAKNSVYLQLNSLKPEDTAVYYCNAVHYPYQHMGSWGQGTQVSVSS | low polyreactivity |
| QVQLVESGGGLVQAGGSLRLSCAASGSTFDGNAMGWYRQAPGTERELVATINSDDSKNYADSVKGRFTISRDNAKNTVYLQMNSLKPEDTAVYYCAARLYVTPILSYVERYTNDYWGQGTQVTVSS | low polyreactivity |
| QVQLVESGGGLVQAGGSLRLSCAASGSTFDGYALGWYRQAPGKERELVAAISKNGGRTYYADSVKGRFTISRDNAKNTVYLQMNSLKPEDTAVYYCAKDIIKYDYDYWGQGTQVTVSS | low polyreactivity |

| Sequence | polyreactivity (PSR sort gate) |
| --- | --- |
| QVQLVESGGGLVQAGGSLRLSCAASGSTFDGYTMGWYRQAPGKERELVAAISWRGTSTYYADSVKGRFTISRYIAKNTVYLQMNSLKPEDTAVYYCAADAYSGYDYWGQGTQVTVSS | low polyreactivity |
| QVQLVESGGGLVQAGGSLRLSCAASGSTFDGYVMGWYRQAPGKEREFVAAISWSGGSTYYADSVKGRFTISRDNAKNTVYLQMNSLKPEDTAVYYCAARVRRQHGYWGQGTQVTVSS | high polyreactivity |
| QVQLVESGGGLVQAGGSLRLSCAASGSTFDINAMGWYRQAPGKEWELVAAITWSGDSTYYADSVKGRFTSSRDYAKHTVSLQMNSLKPEDTAVYYCAADYPYSYYEYSSYYYWGQGTQVTVSS | low polyreactivity |
| QVQLVESGGGLVQAGGSLRLSCAASGSTFDIYPMGWYRQAPGKERELVAAISWSGGRTYYADSVKGRFTISRDNAKNTVYLQMNSLKPEDTAVYYCAAVNKSGTYVEYDYWGQGTQVTVSS | low polyreactivity |
| QVQLVESGGGLVQAGGSLRLSCAASGSTFDKNAMGWYRQEPGKERELVAAINNGGGTTYYADSVKGRFTISRDNAKNTVYLQMNSLKPEDTAVYYCAAVGKAYWSDYQYRYYYWGQGTQVTVSS | low polyreactivity |
| QVQLVESGGGLVQAGGSLRLSCAASGSTFDKYAMGWYRQAPGKDRELVAAITWGGGSTYYADSVKGRFTISRDNAKNTVYLQMNSLKPEDTAVYYCAAEQGSSVLYDSWGQGTQVTVSS | low polyreactivity |
| QVQLVESGGGLVQAGGSLRLSCAASGSTFDNYVMGWYRQAPGKERELVAAISRRGGNTYYADSVKGRFTISRDNAKNTVYLQMNSLKPEDTAVYYCAADPYGYGHWGDYWGQGTQVTVSS | low polyreactivity |
| QVQLVESGGGLVQAGGSLRLSCAASGSTFDPNVMGWYRQAPGKERELVAGITWRGGRTYYADSVKGRFTISRDNAKNTVYLQMNSLKPEDTAVYYCNAEDWTRKYDYWGQGTQVTVSS | high polyreactivity |
| QVQLVESGGGLVQAGGSLRLSCAASGSTFDPYGMGWYRQAPGKERELVAAITSSGRTNYADSVKGRFTISRDNAKNTVYFQMNSLKPEDTAVYYCATRKERYFYRCYEYWGQGTQVTVSS | low polyreactivity |
| QVQLVESGGGLVQAGGSLRLSCAASGSTFDQYGMGWYRQAPGKERELVAAITSVGGTNYADSVKGRFTISRDNAKNTVYLKMNSLKPEDTAVYYCAAGSVSQYDSWGQGTQVTVSS | low polyreactivity |
| QVQLVESGGGLVQAGGSLRLSCAASGSTFDRYTMGWYRQAPGKERELVAAISISGGSTYYADSVKGRFTISRDNAKNTVYLQMNSLKPEDTEVYYCAARLDTVTDYYYWGQGTQVTVSS | low polyreactivity |
| QVQLVESGGGLVQAGGSLRLSCAASGSTFDSNAMGWYRQAPGKERELVAASDWSGGSTYYADSVKGRFTISRDNAKNTVYLQMNSLNPEDTGVYYGDADDSSINYGDFDYWGQGTQVTVTS | low polyreactivity |
| QVQLVESGGGLVQAGGSLRLSCAASGSTFDSNDMGWSRQAPGKERELVAAITWSGGSTYYADSVKGRFTISRDNAKNTVYLQMNSLKPEDTAVYYCAATSGRAFKYDYWGQGTQVTVSS | high polyreactivity |
| QVQLVESGGGLVQAGGSLRLSCAASGSTFDSNVIGWYRQAPGKERELVAAITWSGGSTYYADSVKGRFTISRDNAKNTVYLQMNSLKPEDTAVYYCAARHYPRYGNRRMYYWGQGTQVTVSS | high polyreactivity |
| QVQLVESGGGLVQAGGSLRLSCAASGSTFDSNVMGCYRQAPGKERELVAVINGSGSNTYYADSVKGRFTISRDNAKNTVYLQMNSLKPEDTAVYYCAARVYVSRSKRLNYWGQGTQVTVSS | high polyreactivity |
| QVQLVESGGGLVQAGGSLRLSCAASGSTFDSYAMGWSRQAPGKERELVAAISYSGGSTYYADSVKGRFTISRDNAKNTVYLQMNRLKPEDTAVYYCAASSYNHKRYPSPYDYWGQGTQVTVSS | high polyreactivity |
| QVQLVESGGGLVQAGGSLRLSCAASGSTFDSYAMGWYRQAPGKERELVAAISYNGSSTYYADSVKGRFTISRDNAKNTVYLQMNSLKPEDTAVYYCAAAPGFSAGHHDYWGQGTQVTVSS | low polyreactivity |
| QVQLVESGGGLVQAGGSLRLSCAASGSTFDSYAMGWYRQAPGKERELVASITSNDGSTSYADSVKGRFTISRDNAKNTVYLQMNSLKPEDTAVYYCATTFQYYWFSLYDYWGQGTQVTVSS | low polyreactivity |
| QVQLVESGGGLVQAGGSLRLSCAASGSTFDSYGMGWYRLAPGKERELVAPSTSRGASTNYADSVKGRFTISRDTAKNTVYLQMTSLKPEDTAVYYCNREVPWWLYKYDGHDYWGQATQVTVSS | low polyreactivity |
| QVQLVESGGGLVQAGGSLRLSCAASGSTFDTNAMGWYRQAPGKERELVATITSIGGSTYADSVKGRFTISRDNAKNTVYLQMNSLKPEDTAVYYCATDYVEIDYDYDYWGQGTQVTVSS | low polyreactivity |
| QVQLVESGGGLVQAGGSLRLSCAASGSTFDVNAMGWYRPAPGKERELVAAISWNSGSTYYADSVKGRFTISRDNAKNTVYLQLNSLKPEDTAVYYCAATYGTGRRSKYGYWGQGTQVTVSS | high polyreactivity |

— the nanobody polyreactivity screen of Harvey et al. (2022)
